The supplement of paper PMC10724198
± gives the standard deviation of the averaged measurements.

Assays:
[1] = system: Saccharomyces cerevisiae; test: protein stability index of tFT-peptide fusion (C-terminal peptide) (PSI (0-1 scale)); higher = more stable (slower turnover)
Method: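 MPS profiling in S. cerevisiae of the tFT-X12 degron library: putative degron peptides plus stable controls, 12 aa, fused to the C-terminus of a sfGFP-mCherry timer. Cells are FACS-sorted into 8 mCherry/sfGFP bins and deep-sequenced. PSI runs from 0 (unstable) to 1 (stable). Backgrounds are wild type, das1Δ and doa10Δ at 30 °C, and wild type, das1Δ, cdc34-1 and cdc53-1 at 37 °C; 2-3 technical replicates each.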

[2] = system: Saccharomyces cerevisiae; test: as above; details: genetic background: wild type; temperature: 30 C
[3] = genetic background: cdc34-1, temperature: 37 C
[4] = genetic background: cdc53-1, temperature: 37 C
[5] = genetic background: das1 deletion, temperature: 30 C
[6] = genetic background: das1 deletion, temperature: 37 C
[7] = genetic background: doa10 deletion, temperature: 30 C
[8] = genetic background: wild type, temperature: 30 C
[9] = genetic background: wild type, temperature: 37 C
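Note: PSI is a weighted mean of sequencing reads over stability bins, variants kept only with over 10 reads, mCherry proximal and sfGFP distal, peptide attached via GGGS linker.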

## GGRFVWIVRAVG
[1]; [3]
  protein stability index: 0.6323 ± 0.0024
[1]; [4]
  protein stability index: 0.727 ± 0.017
[1]; [5]
  protein stability index: 0.611 ± 0.021
[1]; [6]
  protein stability index: 0.73 ± 0.022
[1]; [7]
  protein stability index: 0.233 ± 0.004
[1]; [8]
  protein stability index: 0.272 ± 0.037
[1]; [9]
  protein stability index: 0.568 ± 0.057
[2]
  protein stability index: 0.471 ± 0.014

## GGRHYGILDLSL
[1]; [3]
  protein stability index: 0.638 ± 0.063
[1]; [4]
  protein stability index: 0.708 ± 0.013
[1]; [5]
  protein stability index: 0.677 ± 0.019
[1]; [6]
  protein stability index: 0.719 ± 0.024
[1]; [7]
  protein stability index: 0.6927 ± 0.0056
[1]; [8]
  protein stability index: 0.677 ± 0.025
[1]; [9]
  protein stability index: 0.6992 ± 0.00076
[2]
  protein stability index: 0.7174 ± 0.0062

## GGVSPRSSMDLL
[1]; [3]
  protein stability index: 0.6849 ± 0.0066
[1]; [4]
  protein stability index: 0.764 ± 0.01
[1]; [5]
  protein stability index: 0.646 ± 0.023
[1]; [6]
  protein stability index: 0.736 ± 0.029
[1]; [7]
  protein stability index: 0.648 ± 0.0075
[1]; [8]
  protein stability index: 0.645 ± 0.012
[1]; [9]
  protein stability index: 0.7319 ± 0.0035
[2]
  protein stability index: 0.434 ± 0.21

## GGVWVLGVAVVW
[1]; [3]
  protein stability index: 0.114 ± 0.014
[1]; [4]
  protein stability index: 0.132 ± 0.029
[1]; [5]
  protein stability index: 0.246 ± 0.019
[1]; [6]
  protein stability index: 0.349 ± 0.017
[1]; [7]
  protein stability index: 0.207 ± 0.0064
[1]; [8]
  protein stability index: 0.236 ± 0.023
[1]; [9]
  protein stability index: 0.275 ± 0.0036
[2]
  protein stability index: 0.348 ± 0.062

## GGWSFSSLWKIA
[1]; [3]
  protein stability index: 0.625 ± 0.066
[1]; [4]
  protein stability index: 0.817 ± 0.015
[1]; [5]
  protein stability index: 0.765 ± 0.038
[1]; [6]
  protein stability index: 0.8379 ± 0.0033
[1]; [7]
  protein stability index: 0.126 ± 0.013
[1]; [8]
  protein stability index: 0.127 ± 0.019
[1]; [9]
  protein stability index: 0.205 ± 0.012
[2]
  protein stability index: 0.301 ± 0.09

## GIGVVWLDVFKT
[1]; [3]
  protein stability index: 0.4 ± 0.0057
[1]; [4]
  protein stability index: 0.499 ± 0.024
[1]; [5]
  protein stability index: 0.321 ± 0.035
[1]; [6]
  protein stability index: 0.537 ± 0.011
[1]; [7]
  protein stability index: 0.301 ± 0.024
[1]; [8]
  protein stability index: 0.304 ± 0.017
[1]; [9]
  protein stability index: 0.504 ± 0.035
[2]
  protein stability index: 0.426 ± 0.017

## GIKLNVVYILLG
[1]; [3]
  protein stability index: 0.486 ± 0.045
[1]; [4]
  protein stability index: 0.544 ± 0.025
[1]; [5]
  protein stability index: 0.377 ± 0.03
[1]; [6]
  protein stability index: 0.644 ± 0.017
[1]; [7]
  protein stability index: 0.34 ± 0.041
[1]; [8]
  protein stability index: 0.35 ± 0.05
[1]; [9]
  protein stability index: 0.536 ± 0.0097
[2]
  protein stability index: 0.482 ± 0.072

## GKHILLISLNIT
[1]; [3]
  protein stability index: 0.281 ± 0.024
[1]; [4]
  protein stability index: 0.395 ± 0.067
[1]; [5]
  protein stability index: 0.252 ± 0.045
[1]; [6]
  protein stability index: 0.5 ± 0.013
[1]; [7]
  protein stability index: 0.246 ± 0.022
[1]; [8]
  protein stability index: 0.251 ± 0.046
[1]; [9]
  protein stability index: 0.455 ± 0.02
[2]
  protein stability index: 0.351 ± 0.0065

## GKVSSFVLFHIS
[1]; [3]
  protein stability index: 0.649 ± 0.039
[1]; [4]
  protein stability index: 0.761 ± 0.033
[1]; [5]
  protein stability index: 0.622 ± 0.031
[1]; [6]
  protein stability index: 0.7502 ± 0.0042
[1]; [7]
  protein stability index: 0.202 ± 0.024
[1]; [8]
  protein stability index: 0.234 ± 0.021
[1]; [9]
  protein stability index: 0.475 ± 0.0066
[2]
  protein stability index: 0.301 ± 0.013

## GLAVLSWLYIEL
[1]; [3]
  protein stability index: 0.557 ± 0.022
[1]; [4]
  protein stability index: 0.57162 ± 0.00039
[1]; [5]
  protein stability index: 0.457 ± 0.031
[1]; [6]
  protein stability index: 0.598 ± 0.013
[1]; [7]
  protein stability index: 0.445 ± 0.019
[1]; [8]
  protein stability index: 0.461 ± 0.014
[1]; [9]
  protein stability index: 0.57036 ± 0.0001
[2]
  protein stability index: 0.487 ± 0.013

## GLCFRVCIWVFV
[1]; [3]
  protein stability index: 0.176 ± 0.0029
[1]; [4]
  protein stability index: 0.284 ± 0.024
[1]; [5]
  protein stability index: 0.206 ± 0.025
[1]; [6]
  protein stability index: 0.364 ± 0.0058
[1]; [7]
  protein stability index: 0.103 ± 0.016
[1]; [8]
  protein stability index: 0.125 ± 0.025
[1]; [9]
  protein stability index: 0.218 ± 0.0086
[2]
  protein stability index: 0.195 ± 0.041

## GLGWLLFVVERV
[1]; [3]
  protein stability index: 0.457 ± 0.019
[1]; [4]
  protein stability index: 0.499 ± 0.046
[1]; [5]
  protein stability index: 0.359 ± 0.037
[1]; [6]
  protein stability index: 0.552 ± 0.011
[1]; [7]
  protein stability index: 0.34 ± 0.018
[1]; [8]
  protein stability index: 0.345 ± 0.025
[1]; [9]
  protein stability index: 0.511 ± 0.027
[2]
  protein stability index: 0.453 ± 0.032

## GLSLLLLWFKVC
[1]; [3]
  protein stability index: 0.174 ± 0.0095
[1]; [4]
  protein stability index: 0.36 ± 0.0093
[1]; [5]
  protein stability index: 0.307 ± 0.027
[1]; [6]
  protein stability index: 0.463 ± 0.014
[1]; [7]
  protein stability index: 0.0902 ± 0.0054
[1]; [8]
  protein stability index: 0.104 ± 0.025
[1]; [9]
  protein stability index: 0.0839 ± 0.013
[2]
  protein stability index: 0.169 ± 0.017

## GLSVFFFVGFIF
[1]; [3]
  protein stability index: 0.38 ± 0.091
[1]; [4]
  protein stability index: 0.452 ± 0.033
[1]; [5]
  protein stability index: 0.339 ± 0.022
[1]; [6]
  protein stability index: 0.526 ± 0.021
[1]; [7]
  protein stability index: 0.306 ± 0.017
[1]; [8]
  protein stability index: 0.322 ± 0.02
[1]; [9]
  protein stability index: 0.521 ± 0.031
[2]
  protein stability index: 0.418 ± 0.047

## GLVSCWIDPSMA
[1]; [3]
  protein stability index: 0.697 ± 0.0081
[1]; [4]
  protein stability index: 0.77 ± 0.032
[1]; [5]
  protein stability index: 0.635 ± 0.0088
[1]; [6]
  protein stability index: 0.73 ± 0.025
[1]; [7]
  protein stability index: 0.597 ± 0.021
[1]; [8]
  protein stability index: 0.628 ± 0.03
[1]; [9]
  protein stability index: 0.708 ± 0.023
[2]
  protein stability index: 0.714 ± 0.04

## GPCRPWIVVYAG
[1]; [3]
  protein stability index: 0.566 ± 0.036
[1]; [4]
  protein stability index: 0.595 ± 0.042
[1]; [5]
  protein stability index: 0.357 ± 0.034
[1]; [6]
  protein stability index: 0.5831 ± 0.0018
[1]; [7]
  protein stability index: 0.295 ± 0.022
[1]; [8]
  protein stability index: 0.333 ± 0.018
[1]; [9]
  protein stability index: 0.512 ± 0.0063
[2]
  protein stability index: 0.475 ± 0.066

## GPWVIFSHLLLT
[1]; [3]
  protein stability index: 0.459 ± 0.037
[1]; [4]
  protein stability index: 0.49 ± 0.017
[1]; [5]
  protein stability index: 0.405 ± 0.017
[1]; [6]
  protein stability index: 0.546 ± 0.013
[1]; [7]
  protein stability index: 0.258 ± 0.0084
[1]; [8]
  protein stability index: 0.249 ± 0.02
[1]; [9]
  protein stability index: 0.3963 ± 0.0027
[2]
  protein stability index: 0.404 ± 0.023

## GRFGVGVVFRLA
[1]; [3]
  protein stability index: 0.669 ± 0.038
[1]; [4]
  protein stability index: 0.72 ± 0.016
[1]; [5]
  protein stability index: 0.637 ± 0.028
[1]; [6]
  protein stability index: 0.719 ± 0.01
[1]; [7]
  protein stability index: 0.347 ± 0.032
[1]; [8]
  protein stability index: 0.393 ± 0.027
[1]; [9]
  protein stability index: 0.6096 ± 0.0043
[2]
  protein stability index: 0.456 ± 0.043

## GRGRGGRWGRLC
[1]; [3]
  protein stability index: 0.642 ± 0.05
[1]; [4]
  protein stability index: 0.739 ± 0.016
[1]; [5]
  protein stability index: 0.646 ± 0.0085
[1]; [6]
  protein stability index: 0.75048 ± 0.00029
[1]; [7]
  protein stability index: 0.201 ± 0.023
[1]; [8]
  protein stability index: 0.215 ± 0.024
[1]; [9]
  protein stability index: 0.476 ± 0.023
[2]
  protein stability index: 0.269 ± 0.05

## GRLRLGVLCGGV
[1]; [3]
  protein stability index: 0.611 ± 0.016
[1]; [4]
  protein stability index: 0.661 ± 0.014
[1]; [5]
  protein stability index: 0.469 ± 0.021
[1]; [6]
  protein stability index: 0.655 ± 0.018
[1]; [7]
  protein stability index: 0.454 ± 0.0071
[1]; [8]
  protein stability index: 0.472 ± 0.013
[1]; [9]
  protein stability index: 0.634 ± 0.017
[2]
  protein stability index: 0.529 ± 0.045
